For assay [1], the target named is FGF1 (UniProt P05230 1-155). In words: SPR.
Assay [2] deals with FGF8b. In words: SPR.

Drawing on article PMC3378326 (Structure(London, England:1993), 2012), this text covers Kd for 2 molecules.

Sequence of FGF1 (P05230 whole entry): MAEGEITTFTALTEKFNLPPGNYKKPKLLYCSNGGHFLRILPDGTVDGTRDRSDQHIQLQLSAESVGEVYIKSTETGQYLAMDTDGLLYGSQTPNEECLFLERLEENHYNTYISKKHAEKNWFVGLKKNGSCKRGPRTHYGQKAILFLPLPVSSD

B1: D1-D2-D3^ΔAB (FGFR1c) (domain or fragment)
chain: RPSPTLPEQAQPWGAPVEVESFLVHPGDLLQLRCRLRDDVQSINWLRDGVQLAESNRTRITGEEVEVQDSVPADSGLYACVTSSPSGSDTTYFSVNVSDALPSSKETDNTKPNRMPVAPYWTSPEKMEKKLHAVPAAKTVKFKCPSSGTPNPTLRWLKNGKEFKPDHRIGGYKVRYATWSIIMDSVVPSDKGNYTCIVENEYGSINHTYQLDVVERSPHRPILQAGLPANKTVALGSNVEFMCKVYSDPQPHIQWLKHIEVNGSKIGPDNLPYVQILKTAGVNTTDKEMEVLHLRNVSFEDAGEYTCLAGNSIGLSHHSAWLTVLEALEERPAVMTSPLYLE
As to B1, the dissociation constant Kd turned out to be 265 nM in assay [1] and 390 nM in assay [2].

B2: D1-AB13ALA-D2-D3 (FGFR1c) (domain or fragment)
chain: RPSPTLPEQAQPWGAPVEVESFLVHPGDLLQLRCRLRDDVQSINWLRDGVQLAESNRTRITGEEVEVQDSVPADSGLYACVTSSPSGSDTTYFSVNVSDALPSSAAAAAAAAAAAAAKETDNTKPNRMPVAPYWTSPEKMEKKLHAVPAAKTVKFKCPSSGTPNPTLRWLKNGKEFKPDHRIGGYKVRYATWSIIMDSVVPSDKGNYTCIVENEYGSINHTYQLDVVERSPHRPILQAGLPANKTVALGSNVEFMCKVYSDPQPHIQWLKHIEVNGSKIGPDNLPYVQILKTAGVNTTDKEMEVLHLRNVSFEDAGEYTCLAGNSIGLSHHSAWLTVLEALEERPAVMTSPLYLE
With B2, the figures for the Kd in assay [1] and in assay [2] were 268 nM and 329 nM, respectively.
